Results taken from article PMC7055372.

Biological target: Transforming growth factor β-1 (TGFβ-1) (UniProt P01137)
Experiment: ELISA of cell-culture supernatant with anti-TGFβ-1 antibody after acid activation (latent complex formation/secretion)
Conditions: HEK293T cells transfected, supernatant after 48 h; acid-activated (short incubation with HCl); parent: est. 1.0; read off a plot

Row | Substance | response (Normalized OD450)
1 | LAP of wild-type LTGFβ-1 C4S (full-length LTGFβ-1 expressed in HEK-293T cells) (from UniProt P01137) E113P | 0.6
2 | LAP of wild-type LTGFβ-1 C4S (full-length LTGFβ-1 expressed in HEK-293T cells) (from UniProt P01137) L111P | 0.18
3 | LAP of wild-type LTGFβ-1 C4S (full-length LTGFβ-1 expressed in HEK-293T cells) (from UniProt P01137) S109P | 0.53
